Results from the supplement of paper PMC10567573.

B1: LRRC45 (parent)
chain: DLSAANEKNLLLQNQVDELERKFR
B2: RHOBTB2 (parent)
chain: LYTGELDENERDLMHIAHIAELLE

Variants of: B1
Assay: protein stability index of a GFP-peptide fusion (GPS, HEK-293T) (PSI 1-6); higher = more stable
Settings: c terminus: a fixed tail appended
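Note: lentivirally expressed fusions sorted by FACS into six bins by GFP to DsRed ratio, PSI derived from sequencing read proportions per bin multiplied by bin number.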

Point of comparison: E18T, protein stability index 3.7. Against it:
- K22V — lower, 3.27
- K22G — lower, 3.62
- K22M — lower, 3.34
- K22S — higher, 4.15
- K22W — lower, 3.14
- K22L — lower, 3.49
- K22P — higher, 3.88
- K22F — lower, 3
- K22Q — higher, 4.06
- K22D — higher, 4.31
- K22H — higher, 3.86
- K22E — higher, 4.26
- K22R — lower, 3.22
- K22I — lower, 3.01
- K22C — lower, 3.47
- K22N — higher, 4.18
- K22A — higher, 4.27
- K22T — higher, 3.71
- K22Y — lower, 3.34
- V16C — higher, 3.88
- V16D — higher, 4.12
- V16W — lower, 3.55
- V16S — higher, 4.32
- V16K — higher, 4.42
- V16P — higher, 4.09
- V16H — higher, 4.08
- V16Y — lower, 3.6
- V16E — higher, 4.72
- V16L — higher, 4.05
- V16A — higher, 4.48
- V16F — lower, 3.38
- V16G — lower, 3.69
- V16N — higher, 4.24
- V16I — higher, 4
- V16Q — higher, 4.29
- V16R — higher, 4.17
- V16T — lower, 3.66
- V16M — higher, 3.79
- N14V — lower, 3.62
- N14S — lower, 3.51
- N14T — higher, 3.81
- N14Y — lower, 3.65
- N14W — lower, 3.63
- E20L — lower, 3.23
- E20H — lower, 3.35
- E20P — lower, 3.12
- E20K — lower, 3.2
- E20I — lower, 3.47
- E20G — lower, 3.22
- E20S — higher, 3.8
- E20Q — lower, 3.47
- E20M — lower, 2.81
- E20T — lower, 3.43
- E20D — higher, 4.25
- E20W — lower, 2.91
- E20R — lower, 3.06
- E20C — higher, 3.73
- E20N — lower, 3.27
- E20A — higher, 3.96
- E20Y — lower, 2.86
- E20F — lower, 2.54
- E20V — higher, 3.75
- Q15I — lower, 3.38
- Q15W — lower, 3.27
- Q15N — higher, 3.75
- Q15G — higher, 4.36
- Q15V — lower, 3.48
- Q15A — lower, 3.57
- Q15M — higher, 3.77
- Q15E — higher, 4.7
- Q15H — higher, 4.04
- Q15K — higher, 4.06
- Q15S — higher, 4.42
- Q15F — lower, 2.32
- Q15P — higher, 3.71
- Q15R — lower, 3.5
- Q15L — lower, 3.01
- Q15T — lower, 3.35
- Q15D — higher, 4.4
- Q15C — higher, 3.84
- Q15Y — lower, 2.76
- R24V — higher, 3.71
- R24N — higher, 4.47
- R24I — higher, 3.85
- R24K — higher, 4.66
- R24S — higher, 4.25
- R24E — higher, 4.71
- R24Y — higher, 4.17
- R24A — higher, 4.69
- R24M — higher, 3.96
- R24F — lower, 3.62
- R24Q — higher, 4.91
- R24C — higher, 4.36
- R24W — lower, 3.52
- R24T — higher, 4.14
- R24D — higher, 4.86
- R24P — higher, 4.59
- R24G — higher, 4.48
- R24L — higher, 3.78
- R24H — higher, 4.31
- R21Q — higher, 4.09
- R21W — lower, 3.63
- R21C — higher, 3.74
- R21L — higher, 3.74
- R21N — higher, 4.47
- R21P — higher, 4.2
- R21V — higher, 4.05
- R21H — higher, 4.22
- R21Y — higher, 4.14
- R21F — lower, 3.57
- R21T — higher, 4
- R21M — higher, 3.97
- R21G — higher, 4.49
- R21D — higher, 4.28
- R21E — higher, 4.56
- R21K — higher, 3.93
- R21I — lower, 3.55
- R21A — higher, 4.09
- R21S — higher, 4.23
- L19N — higher, 4.27
- L19H — higher, 4.12
- L19R — lower, 3.68
- L19A — higher, 4.58
- L19E — higher, 4.57
- L19Y — lower, 3.48
- L19S — higher, 4.34
- L19F — higher, 3.76
- L19D — higher, 5.16
- L19M — higher, 4.03
- L19K — higher, 3.92
- L19C — higher, 4.16
- L19W — higher, 3.75
- L19V — higher, 4.31
- L19Q — higher, 3.99
- L19G — higher, 4.41
- L19T — higher, 4.34
- L19P — higher, 3.78
- L19I — higher, 4.24
- E18I — lower, 2.49
- E18Y — lower, 3.26
- E18L — lower, 3.31
- E18W — lower, 3.36
- E18N — lower, 3.56
- E18G — lower, 3.67
- E18R — lower, 2.96
- E18S — lower, 3.33
- E18D — higher, 5.06
- E18V — lower, 3.44
- E18K — higher, 3.94
- E18A — lower, 3.57
- E18H — lower, 3.35
- E18C — lower, 3.4
- E18P — higher, 3.91
- E18Q — lower, 3.56
- E18M — lower, 3.23
- E18F — lower, 3.16
- F23H — higher, 3.98
- F23S — higher, 4.36
- F23C — higher, 4.01
- F23E — higher, 5.34
- F23Q — higher, 4.29
- F23N — higher, 4.78
- F23K — higher, 4.33
- F23V — higher, 3.91
- F23T — higher, 4.39
- F23M — higher, 4.63
- F23W — lower, 3.13
- F23P — higher, 4.77
- F23G — higher, 4.6
- F23L — higher, 4.33
- F23I — lower, 3.6
- F23D — higher, 5
- F23R — higher, 3.86
- F23Y — higher, 3.85
- F23A — higher, 5.13
- D17L — lower, 3.24
- D17E — higher, 4.39
- D17H — lower, 2.99
- D17K — lower, 3.55
- D17S — lower, 3.46
- D17I — lower, 3.01
- D17Y — lower, 3.23
- D17Q — lower, 3.66
- D17P — lower, 3.57
- D17M — lower, 3.58
- D17F — lower, 2.81
- D17V — lower, 3.4
- D17R — lower, 2.97
- D17G — lower, 3.46
- D17A — lower, 3.58
- D17W — lower, 2.9
- D17N — lower, 3.52
- D17T — lower, 2.96
- D17C — lower, 3.24

Variants of: B2
Assay: as above
Settings: c terminus: a fixed tail appended

Point of comparison: E8H, protein stability index 2.39. Against it:
- E5D — higher, 2.63
- E5P — higher, 2.52
- E5M — lower, 2.1
- E5S — higher, 2.54
- E5Y — lower, 1.9
- E5A — lower, 2.12
- E5R — higher, 3.45
- E5L — lower, 2.02
- E5N — lower, 2.23
- E5C — lower, 1.67
- E5V — lower, 1.81
- E5W — lower, 2.3
- E5H — lower, 2.24
- E5F — higher, 2.71
- E5Q — lower, 2.22
- E5K — higher, 2.75
- E5T — higher, 2.75
- E5I — lower, 1.65
- E5G — lower, 2.34
- G4P — higher, 2.46
- G4T — lower, 2.25
- G4A — lower, 2.31
- G4Q — higher, 2.7
- G4S — higher, 2.42
- G4M — lower, 1.77
- G4C — lower, 1.87
- G4H — lower, 1.99
- G4V — lower, 1.44
- G4R — lower, 2.29
- G4W — lower, 1.5
- G4E — lower, 2.32
- G4N — lower, 2.05
- G4I — higher, 2.56
- G4F — lower, 1.93
- G4Y — lower, 2.2
- G4K — lower, 1.89
- G4D — higher, 2.53
- G4L — lower, 1.76
- E8C — lower, 2.05
- E8G — lower, 1.91
- E8D — higher, 3.23
- E8A — lower, 2.08
- E8F — lower, 1.96
- D7C — lower, 1.88
- D7P — higher, 2.52
- D7Q — lower, 1.94
- D7Y — lower, 1.89
- D7T — lower, 2.16
- D7R — lower, 2.25
- D7G — lower, 2.15
- D7F — lower, 2.3
- D7V — higher, 2.46
- D7L — higher, 3.31
- D7I — lower, 1.77
- D7N — lower, 2.17
- D7S — higher, 2.48
- D7W — lower, 1.64
- D7A — higher, 2.48
- D7M — lower, 1.97
- D7H — lower, 1.62
- D7E — higher, 2.41
- D7K — lower, 2.33
- T3L — lower, 1.94
- T3H — lower, 2.08
- T3S — higher, 2.61
- T3K — lower, 2.16
- T3I — lower, 2.15
- T3C — lower, 2.31
- T3R — lower, 1.98
- T3M — lower, 2.23
- T3W — lower, 1.54
- T3E — higher, 2.98
- T3D — higher, 3
- T3V — lower, 2.21
- T3A — higher, 2.58
- T3P — lower, 2.14
- T3N — lower, 2.25
- T3F — higher, 3.07
- T3G — lower, 1.91
- T3Q — higher, 2.58
- T3Y — lower, 2.08
- L1D — higher, 3.08
- L1E — higher, 2.72
- L1R — higher, 2.93
- L1Q — higher, 3.08
- L1P — higher, 2.92
- L1A — higher, 2.62
- L1V — higher, 2.8
- L1I — lower, 2
- L1F — higher, 3.02
- L1K — higher, 2.49
- L1H — higher, 2.61
- L1G — higher, 2.53
- L1C — higher, 2.67
- L1N — higher, 2.8
- L1W — higher, 2.43
- L1M — higher, 2.72
- L1T — lower, 2.1
- L1S — higher, 2.52
- L1Y — higher, 2.78
- L6F — higher, 2.46
- L6D — higher, 3.27
- L6W — higher, 2.44
- L6Y — higher, 2.6
- L6C — higher, 2.91
- L6M — higher, 2.56
- L6K — higher, 3.31
- L6A — higher, 3.38
- L6R — higher, 2.79
- L6S — higher, 2.81
- L6V — lower, 2.38
- L6E — higher, 3.4
- L6T — higher, 3.57
- L6H — higher, 2.96
- L6N — higher, 3.49
- L6I — higher, 2.64
- L6Q — higher, 3.86
- L6P — higher, 2.95
- L6G — higher, 3.11
- Y2N — higher, 3.17
- Y2A — higher, 2.73
- Y2G — higher, 3.25
- Y2Q — higher, 3.01
- Y2I — higher, 2.54
- Y2D — higher, 3.68
- Y2W — lower, 1.69
- Y2V — higher, 3.45
- Y2T — higher, 3.44
- Y2L — lower, 2.37
- Y2F — higher, 2.78
- Y2M — higher, 2.73
- Y2C — lower, 2.04
- Y2K — higher, 2.74
- Y2H — higher, 3.8
- Y2P — higher, 3.2
- Y2R — higher, 3.21
- Y2S — higher, 3.34
- Y2E — higher, 3.49
